Results reported in patent publication US20230235057A1.

Key:
[1] = target: human TGFβ1 protein (Sinobiological, 10804-H08H) (human) (UniProt P01137); experiment: ELISA, plate coated with human TGFβ1, HRP-goat anti-human IgG detection
[2] = target: human TGFβ1 protein (Sinobiological, 10804-H08H) (human) (UniProt P01137); experiment: ELISA with reference to Example 5, reference sample
[3] = target: human TGFβ1 protein (Sinobiological, 10804-H08H) (human) (UniProt P01137); experiment: ELISA with reference to Example 5, plate coated with human TGFβ1

Sequence of PD1/TGFβRII fusion protein (heavy): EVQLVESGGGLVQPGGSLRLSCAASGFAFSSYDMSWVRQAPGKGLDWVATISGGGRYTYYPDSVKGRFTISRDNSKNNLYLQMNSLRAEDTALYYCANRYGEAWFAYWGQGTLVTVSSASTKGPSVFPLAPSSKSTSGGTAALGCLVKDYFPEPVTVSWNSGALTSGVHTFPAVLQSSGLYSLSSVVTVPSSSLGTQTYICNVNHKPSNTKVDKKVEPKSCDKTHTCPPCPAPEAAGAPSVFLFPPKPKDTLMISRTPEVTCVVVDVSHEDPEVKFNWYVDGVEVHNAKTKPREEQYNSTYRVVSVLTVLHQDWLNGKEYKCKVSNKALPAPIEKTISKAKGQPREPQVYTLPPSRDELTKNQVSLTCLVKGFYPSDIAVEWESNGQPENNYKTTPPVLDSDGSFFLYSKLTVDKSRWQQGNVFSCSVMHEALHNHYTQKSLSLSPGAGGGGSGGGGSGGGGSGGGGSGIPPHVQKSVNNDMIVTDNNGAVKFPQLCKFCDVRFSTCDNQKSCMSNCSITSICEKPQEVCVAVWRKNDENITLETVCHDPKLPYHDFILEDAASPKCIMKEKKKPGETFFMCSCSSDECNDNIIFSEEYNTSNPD
Sequence of PD1/TGFβRII fusion protein (light): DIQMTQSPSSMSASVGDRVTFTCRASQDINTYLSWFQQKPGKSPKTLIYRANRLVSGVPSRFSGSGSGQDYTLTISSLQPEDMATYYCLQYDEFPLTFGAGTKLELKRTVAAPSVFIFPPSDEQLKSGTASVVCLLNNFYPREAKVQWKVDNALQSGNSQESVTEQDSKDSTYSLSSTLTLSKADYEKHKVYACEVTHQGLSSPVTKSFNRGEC

PD1/TGFβRII fusion protein gave an EC50 [1] of 0.398 nM, a Binding activity (EC50 of control / EC50 of test sample) [2] of 100% and an EC50 [3] of 0.0617 mg/L.
